Drawing on PMC5282554, “The intervening domain from MeCP2 enhances the DNA affinity of the methyl binding domain and provides an independent DNA interaction site”, this text covers Kd for two molecules.

What all share (conditions): protein: recombinant; tags: His-tag removed (PreScission); blunt
For data set [1], the target named is T1, MeCP2 NTD-MBD-ID (UniProt P51608 1-206). Description: ITC; pH 7; MBD site of two-site model; ITC: Tris 50 mM, pH 7, 20 °C (also 15 and 17.5 °C; Pipes or phosphate 50 mM, pH 7), no added NaCl unless stated; protein 3-5 uM in cell, dsDNA 50 uM titrant. Background: In ITC the heat of successive injections is recorded.
Data set [2] addresses T1, MeCP2 NTD-MBD-ID. Put plainly: ITC; pH 7; ID site of two-site model; ITC: Tris 50 mM, pH 7, 20 °C (also 15 and 17.5 °C; Pipes or phosphate 50 mM, pH 7), no added NaCl unless stated; protein 3-5 uM in cell, dsDNA 50 uM titrant.
The target of the next data set is MeCP2 NTD-MBD (UniProt P51608 1-162). Put plainly: ITC; pH 7; ITC: Tris 50 mM, pH 7, 20 °C (also 15 and 17.5 °C; Pipes or phosphate 50 mM, pH 7), no added NaCl unless stated; protein 3-5 uM in cell, dsDNA 50 uM titrant.
For the next data set, the target named is MeCP2 MBD (UniProt P51608 78-162). Described as above.

B1: BDNF promoter IV 45 bp unmethylated (dsDNA)
DNA 1: GCCATGCCCTGGAACGGAACTCTCCTAATAAAAGATGTATCATTT
DNA 2: AAATGATACATCTTTTATTAGGAGAGTTCCGTTCCAGGGCATGGC
One may read the Kd as the free concentration of one partner at which half of the binding sites on the other are occupied at equilibrium, for simple one-to-one binding. Regarding B1, the Kd with MeCP2 NTD-MBD-ID [1] worked out at 1.9 nM; in the data set with MeCP2 NTD-MBD-ID [2], 250 nM; with MeCP2 NTD-MBD, 210 nM; with MeCP2 MBD it was 450 nM.

B2: BDNF promoter IV 45 bp mCpG (dsDNA)
DNA 1: GCCATGCCCTGGAACGGAACTCTCCTAATAAAAGATGTATCATTT
DNA 2: AAATGATACATCTTTTATTAGGAGAGTTCCGTTCCAGGGCATGGC
modifications: 5-methylcytosine at C15 of strand 1 and C30 of strand 2 (symmetric mCpG)
With B2, the dissociation constant (Kd) was found to be 0.56 nM with MeCP2 NTD-MBD-ID [1], 62 nM with MeCP2 NTD-MBD-ID [2], 90 nM with MeCP2 NTD-MBD and 240 nM with MeCP2 MBD.
